{
  "source": "the nanobody polyreactivity screen of Harvey et al. (2022)",
  "data": [
    {"assay": "yeast display, Sf9 membrane polyspecificity reagent, FACS + sequencing; frameworks hold sequencing errors", "outline": "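Galactose-induced (36–48 hours) yeast carrying a synthetic nanobody display library were exposed to 10% biotinylated, detergent-solubilized Sf9 membrane reagent at 4 °C for 1 hour. FACS followed streptavidin microbead enrichment, using low and high (top ~1%) gates for expression (anti-HA) and reagent binding (streptavidin). Colony PCR, MiSeq 2 × 250 sequencing and CDR-length filtering followed. Labels for polyreactivity reflect the gate of origin.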", "values": [
      {"sequence": "QVQLVESGGGLVQAGGSLRLSCAASGRIFYGYTMGWYRQAPGKERELVASITIRGSRTYYADSVKGRFTISRDNAKNSVYLQMNSLKPEDTAVYYCAADFVPARTVHRYDYWGQGTQVTVSS", "polyreactivity (PSR sort gate)": "low polyreactivity"},
      {"sequence": "QVQLVESGGGLVQAGGSLRLSCAASGRIFYGYVMGWYRQAPGKETELVAAMTWSGSRTYYADSVKGRFTISRDNAKNTVYLQMNSLKPEDTAVYYCAARIPSDGYSYWGQVTQVTVSS", "polyreactivity (PSR sort gate)": "high polyreactivity"},
      {"sequence": "QVQLVESGGGLVQAGGSLRLSCAASGRIFYHNTMGWYRQAPGKEREFVAAISKRGGNTYYADSVKGRFTISRDNAKNTVYLQMNSLKPEDTAVYYCNRRNAWSRGEYWGQGTQVTVSS", "polyreactivity (PSR sort gate)": "high polyreactivity"},
      {"sequence": "QVQLVESGGGLVQAGGSLRLSCAASGRIFYKYVMGWDRQAPGKERELVADINRSGGTTYYADSVKGRFTISRDNAKNTVYLQMNSLKPEDTAVYYCTATLPDYWPYYYYQGGDDYWGQGTQVNVSS", "polyreactivity (PSR sort gate)": "low polyreactivity"},
      {"sequence": "QVQLVESGGGLVQAGGSLRLSCAASGRIFYLNAMGWYRQAPGKERELVAVITGNAGSTYYADSVKGRFTISRDNAKNTVYLQMNSLKPEDTAVYYCNALRLVPWSDALYDYWGQGTQVTVSS", "polyreactivity (PSR sort gate)": "low polyreactivity"},
      {"sequence": "QVQLVESGGGLVQAGGSLRLSCAASGRIFYLYAMGWYRQAPGKERELVAAISVSGARTYYADSVKGRFTISRDNAKNNVYLQMNSLKPEDTAVYYCATVGPYRSRRAGDYWGQGTQVTVSS", "polyreactivity (PSR sort gate)": "high polyreactivity"},
      {"sequence": "QVQLVESGGGLVQAGGSLRLSCAASGRIFYLYAMGWYRQAPGKERELVAAITWSGGSTTYADSVKGRFTISRDNAKNTVYLQMNSLKPEDTAVYYCNADGWIFPSFSPMDYWGQGTQVTVSS", "polyreactivity (PSR sort gate)": "low polyreactivity"},
      {"sequence": "QVQLVESGGGLVQAGGSLRLSCAASGRIFYLYAMGWYRQAPGKERELVATISGSGGSTYYADSVKGRFTISRDNAKNTVYLLMISLKPEDTAVYYCAAVSVSSWYDYWGQGTQVSVSS", "polyreactivity (PSR sort gate)": "low polyreactivity"},
      {"sequence": "QVQLVESGGGLVQAGGSLRLSCAASGRIFYLYAMGWYRQAPGTEREMVAAITWSGGSTTYADSVKGRFTISRDNAKNTVYLQMNSLKPEDTAVYYCYADGWIFPSFSPMDYWGQGTQVTVSS", "polyreactivity (PSR sort gate)": "low polyreactivity"},
      {"sequence": "QVQLVESGGGLVQAGGSLRLSCAASGRIFYLYARGWYRQAPGKERELVATISSSGGRTYYADSVKGRFTISRDNAKNTVYLQMNSLKPEDTAVYYCNAYGEDDGPYPFPGYNYWGQGTQVTVSS", "polyreactivity (PSR sort gate)": "low polyreactivity"},
      {"sequence": "QVQLVESGGGLVQAGGSLRLSCAASGRIFYNYAMGWYRQAPGKETELVAAISGSGGSTYYADSVKGRFTISRDNAKNTVYLLMNSLKPEDTAVYYCSTSGQQYYSRNFDYWGQGTQVTVSS", "polyreactivity (PSR sort gate)": "low polyreactivity"},
      {"sequence": "QVQLVESGGGLVQAGGSLRLSCAASGRIFYNYVMGWYRQAPGKERELVAAISSSGGSTYYADSVKGRFTISRDNAKNSVYLQMNSLKPEDTAVYYCSAETYQLTWVLYYYWGQGTQVTVSS", "polyreactivity (PSR sort gate)": "high polyreactivity"},
      {"sequence": "QVQLVESGGGLVQAGGSLRLSCAASGRIFYPNAMGWYRQAPGKERELVAGISRSGGSTYYADSVKGRFTISRDNAKNTVYLQMNSLKPEVTAVFYCAARYYASDRHFRGDYWGQGTQVTVSS", "polyreactivity (PSR sort gate)": "low polyreactivity"},
      {"sequence": "QVQLVESGGGLVQAGGSLRLSCAASGRIFYPYAMGWYRQAPGKERDLVAAIRRSGVDTYYADSVKGRFTISRDNAKNTVYLQMNSLKPEDTAVYYCNKDGGGDSYWYDYWGQGTQVTVSS", "polyreactivity (PSR sort gate)": "low polyreactivity"},
      {"sequence": "QVQLVESGGGLVQAGGSLRLSCAASGRIFYPYAMGWYRQAPGKERELVAAIRWSSGNTRYADSVKGRFTISRDNAKNTVYLQMNSLKPEDTAVYYCAAPAVHILQTVSLTPRPLDYWGQGTQVTVSS", "polyreactivity (PSR sort gate)": "high polyreactivity"},
      {"sequence": "QVQLVESGGGLVQAGGSLRLSCAASGRIFYPYAMGWYRQAPGKERELVAAISRSGGSTYYADTVKGRFTISRDNAKNTVYLQMNSLKPEDTAVYYCAAEVVYFYSDAHIGYVDYEYWGQGTQVTVSS", "polyreactivity (PSR sort gate)": "low polyreactivity"},
      {"sequence": "QVQLVESGGGLVQAGGSLRLSCAASGRIFYPYAMGWYRQAPGKERELVALISWGGGSTYYADSVKGRFTISRDNAKNTVYLQMNSLKPEDTAVYYCAASYVGYWYRRGYGYWGQGTQVTVSS", "polyreactivity (PSR sort gate)": "high polyreactivity"},
      {"sequence": "QVQLVESGGGLVQAGGSLRLSCAASGRIFYPYAMGWYRQAPGTERELVATITRTGSTYYADSVKGRFTISRDNAKNTVYLQMNSLKPEDTAVYDCAVQRSYVGPRQYNYWGQGTQVTVSS", "polyreactivity (PSR sort gate)": "high polyreactivity"},
      {"sequence": "QVQLVESGGGLVQAGGSLRLSCAASGRIFYQYAMGWYRQAPGKERELVAAIRYRDDGTYYADSVKGRFTISRDNAKNTVYLQMNSLQPEDTAVYYCAAKQWGRYGYWGQGTQVTVSS", "polyreactivity (PSR sort gate)": "high polyreactivity"},
      {"sequence": "QVQLVESGGGLVQAGGSLRLSCAASGRIFYRNAMGWYRQAPGKERELVAAISYSGGRTYYADSVKGRFTISRDNAKNTVYLQMNSLKPEDTAVFYCAARYAWGYVDPGDYWGQGTQVTVSS", "polyreactivity (PSR sort gate)": "high polyreactivity"},
      {"sequence": "QVQLVESGGGLVQAGGSLRLSCAASGRIFYRNAMGWYRQAPGKERELVAAITSGGSTYYADSVKGRFTISRDNAKNTVYLQMNSLKPEDTAVYYCAAAYQRWFNRRDYWGQGTQVTVSS", "polyreactivity (PSR sort gate)": "high polyreactivity"},
      {"sequence": "QVQLVESGGGLVQAGGSLRLSCAASGRIFYRYAMGWYRQAPGKERELVAAINKSGGSTYYADSVKGRFTISRDNGKNTVSLQMKSLKPEDTAVYYCTAVYYWYKGDYWGQGTQVTVSS", "polyreactivity (PSR sort gate)": "high polyreactivity"},
      {"sequence": "QVQLVESGGGLVQAGGSLRLSCAASGRIFYRYAMGWYRQAPGKERELVAAIRSGGRTNYADSVKGRFTISRDNAKNTVYLQMNSLKPEDTAVYYCNAVWRYYRKRRAGDFGYWGQGTQVTVSS", "polyreactivity (PSR sort gate)": "low polyreactivity"},
      {"sequence": "QVQLVESGGGLVQAGGSLRLSCAASGRIFYRYAMGWYRQAPGKERELVAAISRNGGSTNYADSVKGRFTISRDNAKNTVYLQMNSLKPEDTAVYYCAARPPTTRPYDYDYWGQGTQVTVSS", "polyreactivity (PSR sort gate)": "high polyreactivity"},
      {"sequence": "QVQLVESGGGLVQAGGSLRLSCAASGRIFYRYAMGWYRQAPGKERELVAAISSAGSTNYADSVKGRFTISRDNAKNTVYLQMNSLKPEDTAVYYCNTVTRWVGKLEYWGQGTQVTVSS", "polyreactivity (PSR sort gate)": "high polyreactivity"},
      {"sequence": "QVQLVESGGGLVQAGGSLRLSCAASGRIFYRYAMGWYRQAPGKERELVAAITRGGRTNYADSVKGRFTISRDNAQNTVYLQMNSLKPEDTAVYYCRPLWYGFDYWGQGTQVTVSS", "polyreactivity (PSR sort gate)": "high polyreactivity"},
      {"sequence": "QVQLVESGGGLVQAGGSLRLSCAASGRIFYRYAMGWYRQAPGKERELVAGITRGGSTYYADSVKGRFTISRDNAKNTVYFQMNSLKPEDTAVYYCNVRWSPAGTGLLDYWGQGTQVTVSS", "polyreactivity (PSR sort gate)": "high polyreactivity"},
      {"sequence": "QVQLVESGGGLVQAGGSLRLSCAASGRIFYRYAMGWYRQAPGKERELVATITNGGSTNYADSVKGRFTISRDNAKNTVYLQMNSLKPEDTAVYYCAARLPGYYGIGDYWGQGTQVTVSS", "polyreactivity (PSR sort gate)": "high polyreactivity"},
      {"sequence": "QVQLVESGGGLVQAGGSLRLSCAASGRIFYRYAMGWYRQAPGKERELVAVISGGGTYYADSVKGRFTISRDNAKNTVYLQMNSLKPEDTAVYYCAADDGVSLVSPYYGGYDYWGQGTQVTVSS", "polyreactivity (PSR sort gate)": "low polyreactivity"},
      {"sequence": "QVQLVESGGGLVQAGGSLRLSCAASGRIFYRYGMGWYRQAPGKERELVASITRGGSTYYADSVKGRFTISRDNAKNTVYLQMNSLKPEDTAVYYCATKSSAGYDYWGQGTQVTVSS", "polyreactivity (PSR sort gate)": "low polyreactivity"},
      {"sequence": "QVQLVESGGGLVQAGGSLRLSCAASGRIFYRYSMGWYRQAPGKERELVAAIRYSGGTTYADSVKGRFTISRDNAKNTVYLQMNSLKPEDTAVYYCAARASLWGGFESWGQGTQVTVSS", "polyreactivity (PSR sort gate)": "high polyreactivity"},
      {"sequence": "QVQLVESGGGLVQAGGSLRLSCAASGRIFYSNAMGWYRQAPGKERELVAAISGSTDSTYYADSVKGRFTISRDNAKNTVYLQMNSLKPEDTAVYYCAAADYWFYYGYYLTMDYWGQGTQVTVSS", "polyreactivity (PSR sort gate)": "low polyreactivity"},
      {"sequence": "QVQLVESGGGLVQAGGSLRLSCAASGRIFYSNTMGWYRQAPGKERELVAAITWRGGRTHYADSVKGRLTISRDNAKNPVYLQMNSLTPEDTAVYYCAARYIPIQYPSYRTWGGYSWGQGTQVTVSS", "polyreactivity (PSR sort gate)": "high polyreactivity"},
      {"sequence": "QVQLVESGGGLVQAGGSLRLSCAASGRIFYSNVMGWYRQAPGKERELVAAISGRTGGTYYADSVKGRFTISRDNAKNTVYLQMNSLKPEDTAVYYCAARVGWNKRRYDYWGQGTQVTVSS", "polyreactivity (PSR sort gate)": "low polyreactivity"},
      {"sequence": "QVQLVESGGGLVQAGGSLRLSCAASGRIFYSYAMGWYRQAPGKERELDAAITRGGSTSYADSVKGRFTISRDNAKNTVYLQMNSLKPEDTAVYYCATRQFYSYWKYYYWGQGTQVTVSS", "polyreactivity (PSR sort gate)": "high polyreactivity"},
      {"sequence": "QVQLVESGGGLVQAGGSLRLSCAASGRIFYSYAMGWYRQAPGKERELVAAITESGGSTNYADSVKGRFTISRDNAKNTVYLQMNSLKPEDTAVYYCNARYKLTFNLYNYWGQGTQVTVSS", "polyreactivity (PSR sort gate)": "low polyreactivity"},
      {"sequence": "QVQLVESGGGLVQAGGSLRLSCAASGRIFYSYAMGWYRQAPGKERELVAAITRTGGNTYYADSVKGRFTISRDNAKNTVYLQMNSLKPEDTAVYYCNAEYWKEHYPEIYYSWGQGTQVTVSS", "polyreactivity (PSR sort gate)": "low polyreactivity"},
      {"sequence": "QVQLVESGGGLVQAGGSLRLSCAASGRIFYSYAMGWYRQAPGKERELVAAITVSGGSTFYADSVKGRFTISRDNAKNTVYLQMNSLKPEDTAVYYCAATRFSQYDWGQGTQVTVSS", "polyreactivity (PSR sort gate)": "high polyreactivity"},
      {"sequence": "QVQLVESGGGLVQAGGSLRLSCAASGRIFYSYAMGWYRQAPGKERELVARISSGGSTNYADSVKGRFTISRDNAKNTVYLQMNSLKPEDTAVYYCAAATIWSGVHYGYWGQGTQVNVSS", "polyreactivity (PSR sort gate)": "low polyreactivity"},
      {"sequence": "QVQLVESGGGLVQAGGSLRLSCAASGRIFYSYAMGWYRQAPGKERELVATISSGGSTNYADSVKGRFTISRDNAKNTVYLQMNSLKPEDTAVYYCARDSTYSSYTSNDYWGQGTQVTVSS", "polyreactivity (PSR sort gate)": "high polyreactivity"},
      {"sequence": "QVQLVESGGGLVQAGGSLRLSCAASGRIFYSYAMGWYRQAPGKERELVATITNGGSTNYADSVKGRFTMSRDNAKNTVYLQMNSLKPEDTAVYYCAKRSFRYASALVRYPPGYYWGQGTQVTVSS", "polyreactivity (PSR sort gate)": "high polyreactivity"}
    ]}
  ]
}
